Laboratory results: patent US20230192896A1 (BIOVERATIV THERAPEUTICS, published 2023)

B1: BIIB-12-1295 (antibody, V domains shown)
VH: QVQLVQSGAEVKKPGASVKVSCKASGYTFTSYYMVWVRQAPGQGLEWMGIINPSGGSTSYAQKFQGRVTMTRDTSTSTVYMELSSLRSEDTAVYYCARVGGATTGKIGYGMDVWGQGTTVTVSS
VL: DIQMTQSPSSVSASVGDRVTITCRASQGISSWLAWYQQKPGKAPKLLIYAASNLQSGVPSRFSGSGSGTDFTLTISSLQPEDFATYYCQQAISLPITFGGGTKVEIK
notes: IgG
B2: BIIB-12-1297 (antibody, V domains shown)
VH: QVQLVESGGGVVQPGRSLRLSCAASGFTFSSYGMHWVRQAPGKGLEWVAVISYDGSNKYYADSVKGRFTISRDNSKNTLYLQMNSLRAEDTAVYYCARSGGQTHRRSMDVWGQGTTVTVSS
VL: EIVLTQSPATLSLSPGERATLSCRASQSVSRYLAWYQQKPGQAPRLLIYDASNRATGIPARFSGSGSGTDFTLTISSLEPEDFAVYYCQQGNNWPPTFGGGTKVEIK
notes: IgG
B3: BIIB-12-1298 (antibody, V domains shown)
VH: QVQLVESGGGVVQPGRSLRLSCAASGFTFSSYGMHWVRQAPGKGLEWVAVISYDGSNKYYADSVKGRFTISRDNSKNTLYLQMNSLRAEDTAVYYCAKGGSDRRVGSWGQGTLVTVSS
VL: DIQMTQSPSSVSASVGDRVTITCRASQGISSWLAWYQQKPGKAPKLLIYAASSLQSGVPSRFSGSGSGTDFTLTISSLQPEDFATYYCQQTNSLPITFGGGTKVEIK
notes: IgG
B4: BIIB-12-1316 (antibody, V domains shown)
VH: QVQLVESGGGVVQPGRSLRLSCAASGFTFSSYGMHWVRQAPGKGLEWVAVISYDGSNKYYADSVKGRFTISRDNSKNTLYLQMNSLRAEDTAVYYCAKSGQYRAFDIWGQGTMVTVSS
VL: DIQMTQSPSSVSASVGDRVTITCRASQGISSWLAWYQQKPGKAPKLLIYAASSLQSGVPSRFSGSGSGTDFTLTISSLQPEDFATYYCQQINNFPPTFGGGTKVEIK
notes: IgG
B5: BIIB-12-1301 (antibody, V domains shown)
VH: QVQLVESGGGVVQPGRSLRLSCAASGFTFSSYGMHWVRQAPGKGLEWVAVISYDGSNKYYADSVKGRFTISRDNSKNTLYLQMNSLRAEDTAVYYCARTGNYGRGMPYWGQGTLVTVSS
VL: EIVLTQSPATLSLSPGERATLSCRASQSVSSYLAWYQQKPGQAPRLLIYDASKRATGIPARFSGSGSGTDFTLTISSLEPEDFAVYYCQQSSSWPPTFGGGTKVEIK
notes: IgG
B6: BIIB-12-1302 (antibody, V domains shown)
VH: QVQLVQSGAEVKKPGASVKVSCKASGYTFTNYGISWVRQAPGQGLEWMGWISAYNGNTNYAQKLQGRVTMTTDTSTSTAYMELRSLRSDDTAVYYCARARSDWRAFDIWGQGTMVTVSS
VL: EIVMTQSPATLSVSPGERATLSCRASQSVSSNLAWYQQKPGQAPRLLIYGASTRATGIPARFSGSGSGTEFTLTISSLQSEDFAVYYCQQVNNLPLTFGGGTKVEIK
notes: IgG
B7: BIIB-12-1303 (antibody, V domains shown)
VH: QVQLVESGGGVVQPGRSLRLSCAASGFTFSSYGMHWVRQAPGKGLEWVAVISYDGSNKYYADSVKGRFTISRDNSKNTLYLQMNSLRAEDTAVYYCARGPTSRLFQHWGQGTLVTVS
VL: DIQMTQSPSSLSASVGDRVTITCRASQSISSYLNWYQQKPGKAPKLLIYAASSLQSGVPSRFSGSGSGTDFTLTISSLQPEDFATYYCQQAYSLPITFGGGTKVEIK
notes: IgG
B8: BIIB-12-1304 (antibody, V domains shown)
VH: QVQLVESGGGVVQPGRSLRLSCAASGFTFSSYGMHWVRQAPGKGLEWVAVISYDGSNKYYADSVKGRFTISRDNSKNTLYLQMNSLRAEDTAVYYCAKGPGSRRFDIWGQGTMVTVSS
VL: EIVMTQSPATLSVSPGERATLSCRASQSVSSNLAWYQQKPGQAPRLLIYGASTRATGIPARFSGSGSGTEFTLTISSLQSEDFAVYYCQQANVLPLTFGGGTKVEIK
notes: IgG
B9: BIIB-12-1305 (antibody, V domains shown)
VH: QVQLVESGGGVVQPGRSLRLSCAASGFTFSSYGMHWVRQAPGKGLEWVAVISYDGSNKYYADSVKGRFTISRDNSKNTLYLQMNSLRAEDTAVYYCAKLGGRWSSDFQHWGQGTLVTVSS
VL: EIVLTQSPATLSLSPGERATLSCRASQSVSSYLAWYQQKPGQAPRLLIYDASNRATGIPARFSGSGSGTDFTLTISSLEPEDFAVYYCQQSANWPPTFGGGTKVEIK
notes: IgG
B10: BIIB-12-1306 (antibody, V domains shown)
VH: QVQLQESGPGLVKPSQTLSLTCTVSGGSISSGGYYWSWIRQHPGKGLEWIGSIYYSGSTYYNPSLKSRVTISVDTSKNQFSLKLSSVTAADTAVYYCARGAGGSAPWGQGTLVTVSS
VL: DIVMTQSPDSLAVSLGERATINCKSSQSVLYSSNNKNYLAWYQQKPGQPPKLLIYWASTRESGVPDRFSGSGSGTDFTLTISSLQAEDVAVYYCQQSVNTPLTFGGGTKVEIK
notes: IgG
B11: BIIB-12-1307 (antibody, V domains shown)
VH: QVQLQESGPGLVKPSETLSLTCAVSGYSISSGYYWAWIRQPPGKGLEWIGSIYHSGSTYYNPSLKSRVTISVDTSKNQFSLKLSSVTAADTAVYYCARGPLPRSRGLAFDIWGQGTMVTVSS
VL: DIQLTQSPSSLSASVGDRVTITCRASQSISSFLNWYQQKPGKAPKLLIYAASSLQSGVPSRFSGSGSGTDFTLTISSLQPEDFATYYCQQTYSTPLTFGGGTKVEIK
notes: IgG
B12: BIIB-12-1310 (antibody, V domains shown)
VH: EVQLVESGGGLVKPGGSLRLSCAASGFTFSSYSMNWVRQAPGKGLEWVSSISSSSSYIYYADSVKGRFTISRDNAKNSLYLQMNSLRAEDTAVYYCARLGGYGSSQRYFDLWGRGTLVTVSS
VL: EIVLTQSPATLSLSPGERATLSCRASQSVSRYLAWYQQKPGQAPRLLIYDASNRATGIPARFSGSGSGTDFTLTISSLEPEDFAVYYCEQASNWPPTFGGGTKVEIK
notes: IgG
B13: BIIB-12-1312 (antibody, V domains shown)
VH: QVQLVESGGGVVQPGRSLRLSCAASGFTFSSYGMHWVRQAPGKGLEWVAVISYDGSNKYYADSVKGRFTISRDNSKNTLYLQMNSLRAEDTAVYYCAKGMGHWIDYWGQGTLVTVSS
VL: DIQMTQSPSSVSASVGDRVTITCRASQGISSWLAWYQQKPGKAPKLLIYAASSLQSGVPSRFSGSGSGTDFTLTISSLQPEDFATYYCQQASSFPPTFGGGTKVEIK
notes: IgG
B14: BIIB-12-1317 (antibody, V domains shown)
VH: QVQLVESGGGVVQPGRSLRLSCAASGFTFSSYGMHWVRQAPGKGLEWVAVISYDGSNKYYADSVKGRFTISRDNSKNTLYLQMNSLRAEDTAVYYCARGVGGHDTRWGQGTLVTVSS
VL: DIQMTQSPSSVSASVGDRVTITCRASQGISSWLAWYQQKPGKAPKLLIYAASSLQSGVPSRFSGSGSGTDFTLTISSLQPEDFATYYCQQRHSLPPTFGGGTKVEIK
notes: IgG
B15: BIIB-12-1313 (antibody, V domains shown)
VH: QVQLVESGGGVVQPGRSLRLSCAASGFTFSSYGMHWVRQAPGKGLEWVAVISYDGSNKYYADSVKGRFTISRDNSKNTLYLQMNSLRAEDTAVYYCAKGTGWWRYWGQGTLVTVSS
VL: EIVMTQSPATLSVSPGERATLSCRASQSVSSNLAWYQQKPGQAPRLLIYGASTRATGIPARFSGSGSGTEFTLTISSLQSEDFAVYYCQQHNHLPITFGGGTKVEIK
notes: IgG
B16: BIIB-12-1315 (antibody, V domains shown)
VH: QVQLVQSGAEVKKPGASVKVSCKASGYTFTSYYMVWVRQAPGQGLEWMGIINPSGGSTSYAQKFQGRVTMTRDTSTSTVYMELSSLRSEDTAVYYCARGRPSSKRVTYFDYWGQGTLVTVSS
VL: EIVMTQSPATLSVSPGERATLSCRASQSVSSNLAWYQQKPGQAPRLLIYGASTRATGIPARFSGSGSGTEFTLTISSLQSEDFAVYYCQQVFNWPPWTFGGGTKVEIK
notes: IgG
B17: BIIB-12-1318 (antibody, V domains shown)
VH: QVQLVESGGGVVQPGRSLRLSCAASGFTFSSYGMHWVRQAPGKGLEWVAVISYDGSNKYYADSVKGRFTISRDNSKNTLYLQMNSLRAEDTAVYYCARKGDYRSGSYSGRAFGIWGQGTMVTVSS
VL: EIVLTQSPATLSLSPGERATLSCRASQSVSSYLAWYQQKPGQAPRLLIYDASNRATGIPARFSGSGSGTDFTLTISSLEPEDFAVYYCQQLNNWPPTFGGGTKVEIK
notes: IgG
B18: BIIB-12-1319 (antibody, V domains shown)
VH: QVQLVESGGGVVQPGRSLRLSCAASGFTFSSYGMHWVRQAPGKGLEWVAVISYDGSNKYYADSVKGRFTISRDNSKNTLYLQMNSLRAEDTAVYYCARTGYHRSVYYWGQGTLVTVSS
VL: EIVMTQSPATLSVSPGERATLSCRASQSVSSNLAWYQQKPGQAPRLLIYGASTRATGIPARFSGSGSGTEFTLTISSLQSEDFAVYYCQQASNFPPTFGGGTKVEI
notes: IgG
B19: BIIB-12-1322 (antibody, V domains shown)
VH: QVQLVQSGAEVKKPGASVKVSCKASGYTFTSYYIHWVRQAPGQGLEWMGIINPSGGSTSYAQKFQGRVTMTRDTSTSTVYMELSSLRSEDTAVYYCARSRQRHRGDWYFDLWGRGTLVTVSS
VL: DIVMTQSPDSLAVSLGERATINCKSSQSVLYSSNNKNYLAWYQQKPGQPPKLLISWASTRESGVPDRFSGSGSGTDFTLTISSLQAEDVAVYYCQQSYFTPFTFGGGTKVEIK
notes: IgG
B20: BIIB-12-1323 (antibody, V domains shown)
VH: QVQLVQSGAEVKKPGASVKVSCKASGYTFTSYYIHWVRQAPGQGLEWMGIINPSGGSTSYAQKFQGRVTMTRDTSTSTVYMELSSLRSEDTAVYYCARGRRFPRGLDYWGQGTLVTVSS
VL: DIQMTQSPSSVSASVGDRVTITCRASQGISSWLAWYQQKPGKAPKLLIYAASSLQSGVPSRFSGSGSGTDFTLTISSLQPEDFATYYCQQANIFPFTFGGGTKVEIK
notes: IgG
B21: BIIB-12-1324 (antibody, V domains shown)
VH: QVQLVQSGAEVKKPGASVKVSCKASGYTFTSYYMVWVRQAPGQGLEWMGIINPSGGSTSYAQKFQGRVTMTRDTSTSTVYMELSSLRSEDTAVYYCARLPRYSKRGLDVWGQGTMVTVSS
VL: EIVMTQSPATLSLSPGERATLSCRASQSVSSYLAWYQQKPGQAPRLLIYDSSNRATGIPARFSGSGSGTDFTLTISSLEPEDFAVYYCQQLVSWPTFGGGTKVEIK
notes: IgG
B22: BIIB-12-1325 (antibody, V domains shown)
VH: QVQLVQSGAEVKKPGASVKVSCKASGYTFTSYYMVWVRQAPGQGLEWMGIINPSGGSTSYAQKFQGRVTMTRDTSTSTVYMELSSLRSEDTAVYYCARGGRYMLDPWGQGTLVTVSS
VL: DIQMTQSPSTLSASVGDRVTITCRASQSISSWLAWYQQKPGKAPKLLIYKASSLESGVPSRFSGSGSGTEFTLTISSLQPDDFATYYCQQSNRYPRTFGGGTKVEIK
notes: IgG
B23: BIIB-12-1326 (antibody, V domains shown)
VH: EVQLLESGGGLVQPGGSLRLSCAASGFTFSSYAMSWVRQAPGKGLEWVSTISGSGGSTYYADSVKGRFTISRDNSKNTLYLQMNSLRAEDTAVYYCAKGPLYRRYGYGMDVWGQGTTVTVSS
VL: EIVLTQSPGTLSLSPGERATLSCRASQSVRSSYLAWYQQKPGQAPRLLIYGASSRATGIPDRFSGSGSGTDFTLTISRLEPEDFAVYYCQQAYSSPLTFGGGTKVEIK
notes: IgG

target: T1, non-activatable Factor X (FXn) (Homo sapiens (Human), UniProt P00742 41-488, single biotin on the C-terminal BioTag); assay: BLI; class meaning: paragraph 285
T1 construct: also called BIIB-FX-015

Binding result, binds:
B1
B2
B3
B4
B5
B6
B7
B8
B9
B10
B11
B12
B13
B14
B15
B16
B17
B18
B19
B20
B21
B22
B23
